Experimental data as given in patent US20160251675.

System: Plant OsNAM12.1 (SUMOylated, from rice root protein extract; genotype of the sample not stated)

deSUMOylating protease Ulp1
deSUMOylation by protease treatment, immunoblot: putative di-SUMOylated (-53 kD; 29+12+12) rather than the putative mono-SUMOylated (-41 kD; 29+12) OsNAM12.1 was preferentially deSUMOylated
